Measurements published in patent US20230034906A1 (TRINOMAB BIOTECH, published 2023).
Changes are numbered by the printed parent chain.

Tests used:
Assay in all cases: indirect ELISA, antibody titrated on gB glycoprotein mutant
[1] = target: T1, gB_Towne protein with N281 mutated into glutamine (human cytomegalovirus, strain Towne, UniProt F5HB53 25-700)
T1 chain: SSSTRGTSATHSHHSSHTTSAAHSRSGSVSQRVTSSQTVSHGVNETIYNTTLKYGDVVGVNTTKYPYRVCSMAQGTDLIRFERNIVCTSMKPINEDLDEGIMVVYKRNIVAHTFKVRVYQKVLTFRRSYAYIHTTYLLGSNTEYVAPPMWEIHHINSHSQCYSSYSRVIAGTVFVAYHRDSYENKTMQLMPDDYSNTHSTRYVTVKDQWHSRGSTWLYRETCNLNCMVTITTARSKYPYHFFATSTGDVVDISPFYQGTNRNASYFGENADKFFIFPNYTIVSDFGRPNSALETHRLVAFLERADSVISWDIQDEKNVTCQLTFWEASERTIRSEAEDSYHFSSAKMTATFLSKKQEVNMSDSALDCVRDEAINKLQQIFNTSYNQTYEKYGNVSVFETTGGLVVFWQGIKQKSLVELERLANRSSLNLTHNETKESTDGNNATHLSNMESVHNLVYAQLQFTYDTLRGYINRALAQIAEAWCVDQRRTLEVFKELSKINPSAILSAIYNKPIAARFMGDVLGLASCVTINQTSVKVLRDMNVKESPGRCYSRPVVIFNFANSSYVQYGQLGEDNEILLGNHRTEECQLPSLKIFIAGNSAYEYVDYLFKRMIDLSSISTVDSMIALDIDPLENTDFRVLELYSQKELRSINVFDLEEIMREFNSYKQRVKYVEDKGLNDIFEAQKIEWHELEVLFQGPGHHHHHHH

[2] = target: T2, gB_Towne protein with N341 mutated into glutamine (human cytomegalovirus, strain Towne, UniProt F5HB53 25-700)
T2 chain: T1 chain with Q257N, N317Q

[3] = target: T3, gB_Towne protein with N409 mutated into glutamine (human cytomegalovirus, strain Towne, UniProt F5HB53 25-700)
T3 chain: T1 chain with Q257N, N385Q

[4] = target: T4, gB_Towne protein with N456 mutated into glutamine (human cytomegalovirus, strain Towne, UniProt F5HB53 25-700)
T4 chain: T1 chain with Q257N, N432Q

Measured: binding result

B1: TRN1019 (antibody, V domains shown)
VH: QVQLVQSGAEVKKPGESLKISCKGSGYTFTNYWIGWVRQMPGAGLEWMAIIFPRDSYSAYSPSFQGRVTISVDKSISTAYLHWSSLEASDTAVYYCAIYNDLRSGNSWGQGTPLIVSS
VL: DIQMTQSPSSLSASVGDRVTITCRASQSITKYLNWYQQKPGRAPKLLIHTTSTLQSGVPSRFSGSGSGTDFTLTISSLQLEDFGTYYCQQSFSTLWTFGQGTKLDIKR
notes: Fully human antibody; kappa light chain
binds: all assays above
